Reference: patent publication US20110150870A1 (UNITED STATES OF AMERICA AS REPRESENTED BY TH, published 2011)

B1: KYK-1.0 Fab (Fab, V domains shown)
VH: EVQLVESGGGVVQPGGSLRLSCAASGFTFSSYGMHWVRQAPGKGLEWVAFIRYDGSNKYYADSVKGRFTISRDNSKNTKYLQMNSLRAEDTAVYYCAKDRFGYYLDYWGQGTLVTVSS
VL: QPVLTQPSSVSVAPGETARIPCGGDDIETKSVHWYQQKPGQAPVLVIYDDDDRPSGIPERFFGSNSGNTATLSISRVEAGDEADYYCQVWDDNNDEWVFGGGTQLTVL
notes: Human Fab with human constant domains (lambda light chain) and a C-terminal (His)6 tag, expressed in E. coli from pC3C-His and purified by IMAC
B2: KYK-2.0 Fab (Fab, V domains shown)
VH: QVQLVESGGGLVKPGGSLRLSCAASGFTFSSYGMHWVRQAPGKGLEWVAFIRYDGSNKYYADSVKGRFTISRDNSKNTKYLQMNSLRAEDTAVYYCAKDRGLGDGTYFDYWGQGTTVTVSS
VL: QSALTQPASVSGSPGQSITISCSGSSSNIGNNAVNWYQQLPGKAPKLLIYYDDLLPSGVSDRFSGSKSGTSAFLAISGLQSEDEADYYCAAWDDSLNGPVFGGGTKLTVL
notes: Human Fab (lambda) with human constant domains and a C-terminal (His)6 tag, expressed in E. coli from pC3C-His and purified by IMAC

Target: T1, tetanus toxoid (UniProt P04958 2-1315)
T1 construct: also called TT
T1 sequence (P04958 2-457 limits assumed, chain 1 of 2): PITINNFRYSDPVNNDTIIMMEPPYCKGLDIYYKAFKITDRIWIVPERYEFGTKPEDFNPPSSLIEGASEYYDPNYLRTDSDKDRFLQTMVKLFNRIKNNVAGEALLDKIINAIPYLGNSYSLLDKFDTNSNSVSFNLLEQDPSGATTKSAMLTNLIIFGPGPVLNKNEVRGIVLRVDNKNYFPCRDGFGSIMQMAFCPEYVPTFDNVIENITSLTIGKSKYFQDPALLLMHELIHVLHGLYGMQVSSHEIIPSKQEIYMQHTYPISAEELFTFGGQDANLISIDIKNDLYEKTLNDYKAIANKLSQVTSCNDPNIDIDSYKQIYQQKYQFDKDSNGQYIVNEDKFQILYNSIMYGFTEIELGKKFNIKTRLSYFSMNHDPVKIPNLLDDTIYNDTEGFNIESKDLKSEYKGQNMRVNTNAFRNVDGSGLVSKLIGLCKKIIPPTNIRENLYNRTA
T1 sequence (P04958 458-1315 limits assumed, chain 2 of 2): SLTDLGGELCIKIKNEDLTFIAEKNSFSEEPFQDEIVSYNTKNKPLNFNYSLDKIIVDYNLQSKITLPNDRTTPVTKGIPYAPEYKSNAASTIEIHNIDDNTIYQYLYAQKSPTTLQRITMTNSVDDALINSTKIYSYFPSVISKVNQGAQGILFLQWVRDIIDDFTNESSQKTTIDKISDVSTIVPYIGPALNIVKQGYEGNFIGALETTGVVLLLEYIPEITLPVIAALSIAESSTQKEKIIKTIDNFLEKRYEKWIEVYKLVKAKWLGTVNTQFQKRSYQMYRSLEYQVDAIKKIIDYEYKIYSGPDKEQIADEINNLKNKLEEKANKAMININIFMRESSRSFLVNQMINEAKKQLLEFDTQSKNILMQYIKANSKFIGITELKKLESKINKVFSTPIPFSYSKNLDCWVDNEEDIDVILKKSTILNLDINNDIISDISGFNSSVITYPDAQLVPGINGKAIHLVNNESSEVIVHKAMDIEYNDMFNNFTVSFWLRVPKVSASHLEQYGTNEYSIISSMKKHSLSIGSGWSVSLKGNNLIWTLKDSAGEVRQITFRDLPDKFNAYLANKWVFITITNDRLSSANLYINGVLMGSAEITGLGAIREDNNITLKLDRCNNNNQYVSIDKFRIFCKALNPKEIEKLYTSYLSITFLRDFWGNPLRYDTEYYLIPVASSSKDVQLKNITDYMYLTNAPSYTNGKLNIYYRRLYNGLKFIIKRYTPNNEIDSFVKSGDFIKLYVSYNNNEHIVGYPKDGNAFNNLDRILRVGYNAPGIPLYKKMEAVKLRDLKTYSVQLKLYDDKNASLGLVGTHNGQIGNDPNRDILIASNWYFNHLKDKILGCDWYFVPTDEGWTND
Experiment: ELISA, 100 ng protein coated per well, anti-human Fab-HRP detection

| Binder | binding result |
| --- | --- |
| B1 | no binding |
| B2 | no binding |
